Conditions: pH 3.6, Thermal, DSC, sodium acetate 50 mM, reversible: yes, whole UniProt chain shown; for heat capacity change of unfolding / unfolding enthalpy (calorimetric): 62.6 °C
[1] = Hydrogenobacter thermophilus (strain DSM 6534 / IAM 12695 / TK-6)
[2] = Pseudomonas aeruginosa (strain ATCC 15692 / DSM 22644 / CIP 104116 / JCM 14847 / LMG 12228 / 1C / PRS 101 / PAO1)

| Protein | heat capacity change of unfolding [1] [kcal/mol/K] | unfolding enthalpy (calorimetric) [1] [kJ/mol] | Tm [1] [°C] | heat capacity change of unfolding [2] [kcal/mol/K] | unfolding enthalpy (calorimetric) [2] [kJ/mol] | Tm [2] [°C] |
| --- | --- | --- | --- | --- | --- | --- |
| Cytochrome c-552 wild type, P15452 (protein) MKKFLLVAVVGLAGITFANEQLAKQKGCMACHDLKAKKVGPAYADVAKKYAGRKDAVDYLAGKIKKGGSGVWGSVPMPPQNVTDAEAKQLAQWILSIK | 0.54 | 291 | 94 |  |  |  |
| Cytochrome c-551 wild type, P00099 (protein) MKPYALLSLLATGTLLAQGAWAEDPEVLFKNKGCVACHAIDTKMVGPAYKDVAAKFAGQAGAEAELAQRIKNGSQGVWGPIPMPPNAVSDDEAQTLAKWVLSQK |  |  |  | 0.72 | 254 | 62.6 |

Reference: FireProtDB (doi:10.1093/protein/15.6.455)
